Results reported in PMC11915502.

Molecular target: His6-HppX3 (Escherichia coli 3R (chicken), …, UniProt A0A0F7IE22 1-151)
Assay: EMSA

B1: Bio-PactX (actX promoter probe) (dsDNA)
DNA 1: AAGTAACTAGCGGTACTAGAGTCGACCTGCAGGCATATAAAATAAGCGCA
DNA 2: TGCGCTTATTTTATATGCCTGCAGGTCGACTCTAGTACCGCTAGTTACTT
  binding result: binds
